Results on one protein are retold here after PMC5291005, “Listeria monocytogenes 10403S Arginine Repressor ArgR Finely Tunes Arginine Metabolism Regulation under Acidic Conditions” (Frontiers in Microbiology, 2017).

Where “and” joins values, the source holds several entries; their conditions need not be identical. Equal entries are not always repeated.

This series deals with the molecule itself. As to the kind of experiment: cross-linking; purified N-terminal His6-ArgR cross-linked with various amounts of glutaraldehyde (multimers at 0.05%) in 50 mM HEPES pH 8.0, 150 mM KCl, 1 mM L-arginine, with or without 1% beta-mercaptoethanol, room temperature, 2 h; 10% SDS-PAGE, Coomassie staining.

B1: Listeria monocytogenes 10403S arginine repressor ArgR (natural protein, UniProt B8DFW1 1-149, looked up)
chain: MNKGHRHIIIRELITSNEIDTQEDLVELLLERDVKVTQATVSRDIKELHLVKVPTQTGGYKYSLPADNSFNPHQKLKRALIDCFIGIDNVQFMIILKVMPGNGNSVGALIDNLDWPEKAGTICGDDTCLIICRSEENAKTLTDRFIDML
notes: ArgR, arginine repressor of the ArgR/AhrC family, Listeria monocytogenes strain 10403S; full-length ORF amplified from the 10403S genome; the his-tagged protein runs at about 23 kDa; also called recombinant ArgR; his-tagged ArgR protein; not shown: His6, N-terminal, kept
With B1, the “stoichiometry N” value is 3 and 6.

What is called stoichiometry N is a count of units in the complex or per binding partner.
